Assay results taken from US20030198640A1 (Human Genome Sciences, published 2003).

How the values were obtained:
Experiment in all cases: flow cytometry on transiently transfected cells
[1] = biological target: T1, DcR2 on transiently transfected cells (UniProt Q9UBN6 56-386, limits assumed)
T1 construct: whole, on cells
T1 sequence (looked up): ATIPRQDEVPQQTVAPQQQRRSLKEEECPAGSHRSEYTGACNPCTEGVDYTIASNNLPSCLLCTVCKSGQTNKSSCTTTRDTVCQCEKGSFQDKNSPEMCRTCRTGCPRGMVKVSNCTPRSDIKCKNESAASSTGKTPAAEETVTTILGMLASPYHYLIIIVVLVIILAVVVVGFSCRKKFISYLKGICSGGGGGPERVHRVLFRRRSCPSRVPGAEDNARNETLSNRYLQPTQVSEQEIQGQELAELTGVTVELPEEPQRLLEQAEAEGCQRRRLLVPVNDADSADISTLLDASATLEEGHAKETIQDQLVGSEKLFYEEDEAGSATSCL
Experimental: (§1) One million cells, in 0.1 ml of FACS buffer (PBS, 0.1% BSA, 0.1% NaN₃), were incubated with 0.1-1 microgram of protein or antibody at RT for 15 min. The cells were washed with 3 ml of FACS buffer, reacted with biotinylated primary antibody, and stained with PE-conjugated secondary antibody at RT for 15 min. Cells were then washed again, resuspended in 0.5 microgram/ml of propidium iodide, and live cells were gated and analyzed on a FACScan using the CellQuest software (BD Biosciences).

[2] = biological target: T2, DcR1 on transiently transfected cells (UniProt O14798 26-236, limits assumed)
T2 construct: whole, on cells
T2 sequence (looked up): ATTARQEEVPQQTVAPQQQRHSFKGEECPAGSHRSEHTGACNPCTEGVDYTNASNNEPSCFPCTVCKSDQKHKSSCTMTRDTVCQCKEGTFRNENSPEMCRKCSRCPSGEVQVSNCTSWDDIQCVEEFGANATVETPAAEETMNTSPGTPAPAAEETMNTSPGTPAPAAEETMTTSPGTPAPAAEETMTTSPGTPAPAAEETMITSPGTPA
Experimental: as §1

[3] = biological target: T3, TNFR2 on transiently transfected cells (UniProt P20333 23-461, limits assumed)
T3 construct: whole, on cells
T3 sequence (looked up): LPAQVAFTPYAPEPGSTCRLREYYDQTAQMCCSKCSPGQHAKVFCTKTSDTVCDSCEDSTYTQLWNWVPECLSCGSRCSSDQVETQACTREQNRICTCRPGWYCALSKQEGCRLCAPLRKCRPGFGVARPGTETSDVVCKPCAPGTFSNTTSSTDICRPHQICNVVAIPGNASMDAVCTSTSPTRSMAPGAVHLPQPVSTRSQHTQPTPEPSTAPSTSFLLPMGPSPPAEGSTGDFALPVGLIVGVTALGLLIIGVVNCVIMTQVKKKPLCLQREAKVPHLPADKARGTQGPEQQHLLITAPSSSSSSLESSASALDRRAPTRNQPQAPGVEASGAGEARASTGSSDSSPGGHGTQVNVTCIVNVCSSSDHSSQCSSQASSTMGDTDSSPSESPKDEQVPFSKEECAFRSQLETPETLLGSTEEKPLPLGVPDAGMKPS
Experimental: as §1

[4] = biological target: T4, 4-1BB on transiently transfected cells (UniProt Q07011 24-255)
T4 construct: whole, on cells
T4 sequence (Q07011 24-255): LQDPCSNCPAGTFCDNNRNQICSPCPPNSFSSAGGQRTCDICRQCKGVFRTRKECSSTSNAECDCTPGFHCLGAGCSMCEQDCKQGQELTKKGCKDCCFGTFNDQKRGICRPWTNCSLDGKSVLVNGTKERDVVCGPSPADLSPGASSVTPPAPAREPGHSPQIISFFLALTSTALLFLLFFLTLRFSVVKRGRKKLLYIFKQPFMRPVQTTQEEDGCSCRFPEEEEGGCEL
Experimental: as §1

[5] = biological target: T5, RANK on transiently transfected cells (UniProt Q9Y6Q6 30-616, limits assumed)
T5 construct: whole, on cells
T5 sequence (looked up): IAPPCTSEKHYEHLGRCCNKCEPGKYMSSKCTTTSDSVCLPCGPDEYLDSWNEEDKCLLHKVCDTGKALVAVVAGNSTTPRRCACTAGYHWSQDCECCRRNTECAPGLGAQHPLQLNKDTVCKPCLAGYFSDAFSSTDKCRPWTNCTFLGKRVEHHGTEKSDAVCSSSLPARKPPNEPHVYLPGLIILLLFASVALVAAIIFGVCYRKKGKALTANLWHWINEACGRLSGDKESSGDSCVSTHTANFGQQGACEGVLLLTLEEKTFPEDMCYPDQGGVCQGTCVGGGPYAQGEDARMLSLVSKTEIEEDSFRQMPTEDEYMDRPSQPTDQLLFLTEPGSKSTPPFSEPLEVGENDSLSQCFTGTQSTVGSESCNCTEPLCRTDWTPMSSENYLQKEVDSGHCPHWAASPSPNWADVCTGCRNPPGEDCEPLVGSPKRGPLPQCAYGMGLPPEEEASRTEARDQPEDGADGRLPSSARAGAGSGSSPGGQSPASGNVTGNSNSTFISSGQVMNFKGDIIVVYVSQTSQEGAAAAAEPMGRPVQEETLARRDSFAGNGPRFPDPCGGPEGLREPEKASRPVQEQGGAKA
Experimental: as §1

[6] = biological target: T6, BCMA on transiently transfected cells (UniProt Q02223 1-184, limits assumed)
T6 construct: whole, on cells
T6 sequence (looked up): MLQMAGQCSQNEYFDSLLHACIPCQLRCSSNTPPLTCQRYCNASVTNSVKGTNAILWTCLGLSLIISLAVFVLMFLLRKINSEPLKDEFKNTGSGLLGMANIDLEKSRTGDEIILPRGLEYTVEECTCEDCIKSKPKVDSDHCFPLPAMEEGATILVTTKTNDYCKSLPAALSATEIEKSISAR
Experimental: as §1

Measured: binding result

B1: FLAG-tagged soluble form of TNF-gamma-beta (aa 72-251) (ligand)
chain: LKGQEFAPSHQQVYAPLRADGDKPRAHLTVVRQTPTQHFKNQFPALHWEHELGLAFTKNRMNYTNKFLLIPESGDYFIYSQVTFRGMTSECSEIRQAGRPNKPDSITVVITKVTDSYPEPTQLLMGTKSVCEVGSNWFQPIYLGAMFSLQEGDKLMVNVSDISLVDYTKEDKTFFGAFLL
notes: also called FLAG-TL1β; FLAG-TNF-gamma-beta; not shown: FLAG tag of the pFLAG-CMV-1 vector at the amino terminus
no binding: all assays above
